T1: 018-muOX40L (mouse, UniProt P43488)
T1 construct: also called mouse OX40L
T1 sequence (bead-bound control antigen, looked up): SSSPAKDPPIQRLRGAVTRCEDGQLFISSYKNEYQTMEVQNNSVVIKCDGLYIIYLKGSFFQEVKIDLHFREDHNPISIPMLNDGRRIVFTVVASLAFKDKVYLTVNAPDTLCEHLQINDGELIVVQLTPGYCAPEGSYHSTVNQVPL

B1: hOX40R-Fc (Fc fusion, human, UniProt P43489 29-214, looked up)
chain: LHCVGDTYPSNDRCCHECRPGNGMVSRCSRSQNTVCRPCGPGFYNDVVSSKPCKPCTWCNLRSGSERKQLCTATQDTVCRCRAGTQPLDSYKPGVDCAPCPPGHFSPGDNQACKPWTNCTLAGKHTLQPASNSSDAICEDRDPPATQPQETQGPPARPITVQPTEAWPRTSQGPSTRPVEVPGGRA
notes: Defined as 'the human IgG Fc domain fused to the human OX40 receptor'; also called hFc-OX40R; HFc-OX40R; not shown: Fc domain of human IgG
B2: Human Fc-OX40L (Fc fusion, UniProt P23510 51-183, looked up)
chain: QVSHRYPRIQSIKVQFTEYKKEKGFILTSQKEDEIMKVQNNSVIINCDGFYLISLKGYFSQEVNISLHYQKDEEPLFQLKKVRSVNSLMVASLTYKDKVYLNVTTDNTSLDDFHVNGGELILIHQNPGEFCVL
notes: Defined as 'the Fc domain of human IgG fused to human OX40L'; Made in 293T or COS cells; also called hFc-OX40L; HFc-OX40L; not shown: Fc domain of human IgG

Legend:
Human Fc-OX40L [1] = molecular target: B2; assay: BIAcore, immobilized hFc-OX40L
Human Fc-OX40L [2] = molecular target: B2; assay: cell-based or functional assay
018-muOX40L [3] = molecular target: T1, 018-muOX40L; assay: Luminex bead assay: antigen loaded on biotin beads, antibody titrated, detection anti-huIgG-PE [panel Ab F]
Human Fc-OX40L [4] = molecular target: B2; assay: BIAcore solution equilibrium: 0.2 nM antibody pre-mixed with 20-0.005 nM hFc-OX40L, free antibody read on immobilized hFc-OX40L
Experimental: The binding equilibrium of four of the antibodies was assessed on a BIACore chip as described above in Example 1 with the following modifications. HFc-OX40L was immobilized to the sensor chip at a high density of 8,000 RU. Serial 2.5-fold dilutions of hFc-OX40L were prepared in sample buffer so that the final concentration of hFc-OX40L, once mixed with an anti-OX40L antibody, ranged between 20 nM to 0.005 nM. Monoclonal anti-OX40L antibody candidates were mixed with each hFc-OX40L dilution in a total of 400 μl so that the final concentration of monoclonal antibody was 0.2 nM. Samples were incubated at room temperature for at least five hours to allow samples to reach equilibrium. Samples were then injected over the immobilized hFc-OX40L surface for 30 minutes at 10 μl/min. After the sample injection, the samples were allowed to dissociate for 3 minutes, and then the surface was regenerated by injecting 8 mM glycine, pH 3.0, 1 M NaCl for 30 seconds. The binding signals obtained were proportional to the free antibody in solution at equilibrium for a given concentration of ligand. Plotting the binding signal versus ligand concentration, and using the scientific graphing software program GraphPad Prizm, the EC₅₀ values for each antibody at a given concentration in the presence of varying concentrations of hFc-OX40L were calculated.

Human Fc-OX40L [5] = molecular target: B2; assay: BIAcore solution equilibrium at 0.2 and 0.6 nM binder, dual-curve one-site fit (KinExA software)
Experimental: (§1) Specifically, BIACore chips were prepared as described above in Example 1, with the following modifications. HFc-OX40L was immobilized to the sensor chip at a high density of 8,000 RU. […] Samples were incubated at room temperature for at least five hours to allow samples to reach equilibrium. Samples were then injected over the immobilized hFc-OX40L surface for 30 minutes at 10 μl/min. After the sample injection, the samples were allowed to dissociate for 3 minutes, and then the surface was regenerated by injecting 8 mM glycine, pH 3.0, 1 M NaCl for 30 seconds. The binding signals, measured in RU, obtained were proportional to the free antibody in solution at equilibrium for a given concentration of ligand. The dissociation equilibrium constant (KD) was obtained from nonlinear regression analysis of the competition curves using a dual-curve one-site homogeneous binding model (KinExA software v. 2.3, Sapidyne Instruments Inc., Boise Id.).

hOX40R-Fc = molecular target: B1; assay: as above
Experimental: as §1

018-muOX40L [6] = molecular target: T1, 018-muOX40L; assay: Luminex bead assay: antigen loaded on biotin beads, antibody titrated, detection anti-huIgG-PE [panel Ab C]

| EC50 (Human Fc-OX40L [1]) | IL-2 Inhibition (IC50 [nM]) (Human Fc-OX40L [2]) | binding result (018-muOX40L [3]) | EC50 (Human Fc-OX40L [4]) | Kd (Human Fc-OX40L [5]) | Kd (hOX40R-Fc) | binding result (018-muOX40L [6]) | Binder |
| --- | --- | --- | --- | --- | --- | --- | --- |
| 1 nM | 0.32 nM |  |  |  |  |  | Ab A (antibody, V domains shown, Human anti-OX40L monoclonal antibody from transgenic mice) VH: not shown VL: DIQMTQSPSSLSASVGDRVTITCRASQGISNHLVWYQQKVGKVPKLLIYAASTLQSGVPSRFSGSGSGTDFTLTISSLQPEDVATYYCQKFNSAPFTFGPGTKVDIKR |
|  |  | no binding (tested: 100 nM) | 0.402 nM | 0.12 nM |  |  | Ab F (antibody, V domains shown, Human anti-OX40L monoclonal antibody) VH: EVQLVESGGGLVKPGGSLRLSCAASGFTFSNAWMSWVRQAPGKGLEWVGRIKRKTDGGTIDYAAPVKGRFTISRADSKNTLFLQMNSLITEDTAVYYCTISYYYDYSGYYYVDHWGQGTLVTVSS VL: DIQMTQSPSSLSASVGDRVTITCRASQGISNHLVWYQQKPGKVPKLLIYAASTLQSGVPSRFSGSGSGTDFTLTISSLQPEDVATYYCQKYNSAPLTFGGGTKVEIKR |
| 0.69 nM | 0.58 nM |  | 0.686 nM |  |  |  | Ab E (antibody, V domains shown, Human anti-OX40L monoclonal antibody) VH: EVQLVESGGGLVKPGGSLRLSCAASGFTFSNAWMSWVRQAPGKGLEWVGRIKRKTDGGTIDYAAPVKGRFTISRADSKNTLFLQMNSLITEDTAVYYCTISYYYDYSGYYYVDHWGQGTLVTVSS VL: DIQMTQSPSSLSASVGDRVTITCRASQGISNHLVWYQQKPGKVPKLLIYAASTLQSGVPSRFSGSGSGTDFTLTISSLQPEDVATYYCQKYNSAPLTFGGGTKVEIKR |
| 1 nM | 5.2 nM |  |  |  |  |  | B1 |
| 0.6 nM | 0.49 nM |  |  |  |  |  | Ab B (antibody, V domains shown, Human anti-OX40L monoclonal antibody) VH: QVQLQESGPGLVKPSETLSLTCTVSGGSISTYYWNWIRQPAGKGLEWIGRIYISGSTNYNPSLKSRVTMSVDTSKNQFSLKLSSVTAADTAVYYCARDRVDIVATKGHYYYGMDVWGQGTTVTVSS VL: not shown |
|  |  |  |  |  | 1 nM |  | B2 |
| 0.1 nM | 2 nM |  | 0.101 nM | 0.033 nM |  | no binding (tested: 100 nM) | Ab C (antibody, V domains shown, Human anti-OX40L monoclonal antibody) VH: QVQLVESGGGVVQPGRSLRLSCAASGFTFSFYGMHWVRQAPGKGLEWVAVIWYDGSNKYYADSVKGRFTISRDNSKNTLYLQMNSLRAEDTAVYYCARGGYDYVWGSYRRNSDFDYWGQGTLVTVSS VL: not shown |
